± gives the standard error. For part of these data: Fewer inactive variants are shown than the library holds.
B1: glmS ribozyme (parent)
chain: AUAAAAGCGCCAGAACUACAGAAAUGUAGUUGACGAGGAGGAGGUUUAUCGAAUUUUCGGCGGAUGCCUCCAAA

Key:
Conditions in all cases: with glucosamine-6-phosphate
glucosamine-6-phosphate [1] = variants of: B1; experiment: kcat; higher = faster cleavage; RNA array
Method in brief: (§1)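 Glucosamine-6-phosphate (40 μM to 10 mM) in HEPES/KCl/Mg(OAc)2 buffer was flowed over sequenced MiSeq chips, and tiles were imaged over ~14 h. Barcoded ribozyme variants there had been transcribed in situ by E. coli RNA polymerase and were tracked through a hybridised Cy3 probe at 37 °C. One- or two-exponential decay fits to per-tile medians, normalised to baseline and to non-cleaving reference variants, gave kobs. kcat and KM came from weighted Michaelis–Menten fits across concentrations.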

glucosamine-6-phosphate [2] = variants of: B1; experiment: self-cleavage kobs at 640 uM GlcN6P; higher = faster cleavage; RNA array
Method in brief: as §1

glucosamine-6-phosphate [3] = variants of: B1; experiment: self-cleavage kobs at 2500 uM GlcN6P; higher = faster cleavage; RNA array
Method in brief: as §1

glucosamine-6-phosphate [4] = variants of: B1; experiment: self-cleavage kobs at 40 uM GlcN6P; higher = faster cleavage; RNA array
Method in brief: as §1

glucosamine-6-phosphate [5] = variants of: B1; experiment: self-cleavage kobs at 10000 uM GlcN6P; higher = faster cleavage; RNA array
Method in brief: as §1

glucosamine-6-phosphate [6] = variants of: B1; experiment: KM; higher = weaker cofactor use; RNA array
Method in brief: as §1

glucosamine-6-phosphate [7] = variants of: B1; experiment: self-cleavage kobs at 160 uM GlcN6P; higher = faster cleavage; RNA array
Method in brief: as §1

Row | Variant | kcat (glucosamine-6-phosphate [1]) [s⁻¹] | self-cleavage kobs at 640 uM GlcN6P (glucosamine-6-phosphate [2]) [s⁻¹] | self-cleavage kobs at 2500 uM GlcN6P (glucosamine-6-phosphate [3]) [s⁻¹] | self-cleavage kobs at 40 uM GlcN6P (glucosamine-6-phosphate [4]) [s⁻¹] | self-cleavage kobs at 10000 uM GlcN6P (glucosamine-6-phosphate [5]) [s⁻¹] | KM (glucosamine-6-phosphate [6]) [µM] | self-cleavage kobs at 160 uM GlcN6P (glucosamine-6-phosphate [7]) [s⁻¹]
1 | C50U C71A | 2.1e-05 ± 3.7e-06 | 2.36e-05 ± 1.1e-05 | 2.3e-05 ± 8.6e-06 |  |  |  | 
2 | C67G C71A | < 1e-05 |  |  |  |  |  | 
3 | G13U U56C | 0.000107 ± 3.8e-05 | 9.36e-05 ± 1.9e-05 | 7.63e-05 ± 1.5e-05 | < 1e-05 | 0.000214 ± 4.4e-05 |  | 
4 | U47G U56G | 0.00559 ± 0.00071 | 0.00151 ± 0.00034 | 0.00299 ± 0.00058 | 0.000148 ± 2.2e-05 | 0.00556 ± 0.00097 | 1560 ± 280 | 0.000523 ± 0.00015
5 | G29U U31C | 0.000449 ± 0.00016 | 9.18e-05 ± 8.9e-06 | 0.00015 ± 1.8e-05 |  | 0.000407 ± 3.7e-05 |  | 4.01e-05 ± 1.3e-05
6 | U30C U45C | 3.55e-05 ± 1.6e-05 |  | 4.35e-05 ± 2.1e-05 | < 1e-05 |  |  | 
7 | C16A U45A | 0.00475 ± 0.0015 | 0.000781 ± 0.00013 | 0.00222 ± 0.00037 | 7.33e-05 ± 1.3e-05 | 0.00331 ± 0.00052 | 3620 ± 1600 | 0.000133 ± 3.5e-05
8 | U46G U56G | 0.00393 ± 0.00066 | 0.00128 ± 0.00033 | 0.00271 ± 0.00083 | 8.55e-05 ± 1.5e-05 | 0.0029 ± 0.001 | 1690 ± 350 | 0.000353 ± 0.00012
9 | G40A A42U | 7.24e-05 ± 1.6e-05 |  | 7.53e-05 ± 1.2e-05 |  | 5.75e-05 ± 1.2e-05 |  | 
10 | A36U C67G | 1.75e-05 ± 5.9e-06 |  |  |  |  |  | 
11 | G44U U47A | 0.00016 ± 1.2e-05 | 4.97e-05 ± 2.4e-05 | 9.01e-05 ± 1.7e-05 |  | 0.000136 ± 1.6e-05 | 1850 ± 460 | 
12 | C67U C71A | 0.000182 ± 3.8e-05 | 6.34e-05 ± 9e-06 | 0.000131 ± 1.6e-05 |  | 0.000168 ± 2.2e-05 |  | 6.95e-05 ± 1.8e-05
13 | U55G C58U | 0.00011 ± 7.5e-06 |  | 2.7e-05 ± 8.5e-06 |  | 6.17e-05 ± 7.4e-06 | 7880 ± 1100 | 
14 | A39C U65G | 0.00143 ± 8.9e-05 | 0.000243 ± 3.9e-05 | 0.000558 ± 9.7e-05 |  | 0.0011 ± 9.8e-05 | 3200 ± 380 | 7.31e-05 ± 2e-05
15 | C58G G66C | 2.6e-05 ± 1.4e-06 | < 1e-05 |  |  |  | 2200 ± 540 | 
16 | C8U C71U | < 1e-05 | < 1e-05 |  |  |  | 25 ± 11 | 
17 | G37C U47C | < 1e-05 |  |  | < 1e-05 |  |  | < 1e-05
18 | G38A C58G C70U | 1.98e-05 ± 8.1e-06 |  |  |  |  |  | 
